Assays:
Settings in all cases: both partners purified
[1] = target: T1, Clk1 (recombinant, covalently immobilised on the CM5 chip) (UniProt P49759 1-484); assay: SPR; Biacore T200; Clk1, Clk2 (1000 RU) and Clk4 (1000 RU) covalently immobilised on a CM5 chip by NHS/EDC; PGC1α titrated in HBS-N without DMSO, 30 µl/min, 60 s association, 120 s dissociation; steady state, one-site specific binding model
T1 construct: Clk1 kinase, recombinant; The methods print the catalogue number beside PDB 1Z57, which was used for modelling; also called Clk1 GST; source: bought: AbCam #114 706 (recombinant)

[2] = target: T2, Clk4 (recombinant, covalently immobilised on the CM5 chip) (UniProt Q9HAZ1 1-481); assay: as above
T2 construct: Clk4 kinase, recombinant; source: bought: Abcam#AB204144 (recombinant)

[3] = target: T3, Clk2 (recombinant, covalently immobilised on the CM5 chip) (UniProt P49760 1-499); assay: as above
T3 construct: Clk2 kinase, recombinant; source: bought: Abcam #AB63190 (recombinant)

[4] = target: T4, PGC1α 6X his-tagged construct (UniProt Q9UBK2 1-798); assay: SPR; Biacore T200; ~1000 RU PGC1α 6X his held non-covalently on a Ni-NTA chip; Clk1 flowed, 30 µl/min; one-site specific binding model with Hill slope
T4 construct: PGC1α, 6X his-tagged construct held on a Ni-NTA chip
T4 sequence (looked up): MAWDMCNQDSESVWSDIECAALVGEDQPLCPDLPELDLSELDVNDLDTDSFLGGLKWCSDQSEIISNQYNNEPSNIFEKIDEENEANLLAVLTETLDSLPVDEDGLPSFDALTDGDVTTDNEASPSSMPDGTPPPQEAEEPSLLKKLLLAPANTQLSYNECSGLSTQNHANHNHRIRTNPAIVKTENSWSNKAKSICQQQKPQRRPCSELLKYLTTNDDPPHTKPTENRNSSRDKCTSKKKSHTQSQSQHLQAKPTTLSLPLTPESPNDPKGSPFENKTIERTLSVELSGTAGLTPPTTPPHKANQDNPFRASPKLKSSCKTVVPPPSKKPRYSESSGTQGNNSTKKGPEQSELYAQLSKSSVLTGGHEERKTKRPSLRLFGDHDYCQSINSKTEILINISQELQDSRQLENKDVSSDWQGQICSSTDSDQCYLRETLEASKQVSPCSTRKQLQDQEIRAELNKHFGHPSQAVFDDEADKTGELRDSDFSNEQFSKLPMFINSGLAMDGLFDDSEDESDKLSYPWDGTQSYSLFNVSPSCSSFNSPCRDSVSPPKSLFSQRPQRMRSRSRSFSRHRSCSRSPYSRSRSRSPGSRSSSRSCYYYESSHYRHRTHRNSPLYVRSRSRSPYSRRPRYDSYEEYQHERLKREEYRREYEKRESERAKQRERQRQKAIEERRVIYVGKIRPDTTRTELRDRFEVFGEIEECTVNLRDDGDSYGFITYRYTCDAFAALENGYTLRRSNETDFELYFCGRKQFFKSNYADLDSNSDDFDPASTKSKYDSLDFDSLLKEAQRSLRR

T3 sequence (P49760 whole entry): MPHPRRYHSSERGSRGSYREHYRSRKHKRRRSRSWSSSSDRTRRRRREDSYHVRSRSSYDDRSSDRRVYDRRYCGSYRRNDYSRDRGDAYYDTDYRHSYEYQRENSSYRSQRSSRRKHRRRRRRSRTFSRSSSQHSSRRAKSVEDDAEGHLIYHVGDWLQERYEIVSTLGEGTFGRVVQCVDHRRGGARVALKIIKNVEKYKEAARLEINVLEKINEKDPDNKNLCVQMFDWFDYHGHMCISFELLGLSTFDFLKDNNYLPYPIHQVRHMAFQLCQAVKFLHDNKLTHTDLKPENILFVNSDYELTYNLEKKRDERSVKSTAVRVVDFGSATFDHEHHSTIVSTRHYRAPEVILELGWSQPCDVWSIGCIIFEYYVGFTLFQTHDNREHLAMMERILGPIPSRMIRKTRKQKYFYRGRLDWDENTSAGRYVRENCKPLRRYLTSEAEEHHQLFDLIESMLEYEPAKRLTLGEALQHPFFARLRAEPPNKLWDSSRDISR
T1 sequence (P49759 whole entry): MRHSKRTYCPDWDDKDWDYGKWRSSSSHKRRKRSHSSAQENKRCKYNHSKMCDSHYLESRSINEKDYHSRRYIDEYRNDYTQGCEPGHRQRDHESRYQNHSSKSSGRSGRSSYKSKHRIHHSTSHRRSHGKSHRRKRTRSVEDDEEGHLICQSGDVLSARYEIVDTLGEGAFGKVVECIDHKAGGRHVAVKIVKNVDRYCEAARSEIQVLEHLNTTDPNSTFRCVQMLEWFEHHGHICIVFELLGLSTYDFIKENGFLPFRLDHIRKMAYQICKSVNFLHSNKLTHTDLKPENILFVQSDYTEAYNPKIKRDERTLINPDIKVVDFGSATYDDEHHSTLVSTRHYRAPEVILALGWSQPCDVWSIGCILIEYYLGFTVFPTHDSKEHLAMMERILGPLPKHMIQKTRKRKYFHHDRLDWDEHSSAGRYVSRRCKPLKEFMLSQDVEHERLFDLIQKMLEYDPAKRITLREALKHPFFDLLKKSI
T2 sequence (Q9HAZ1 whole entry): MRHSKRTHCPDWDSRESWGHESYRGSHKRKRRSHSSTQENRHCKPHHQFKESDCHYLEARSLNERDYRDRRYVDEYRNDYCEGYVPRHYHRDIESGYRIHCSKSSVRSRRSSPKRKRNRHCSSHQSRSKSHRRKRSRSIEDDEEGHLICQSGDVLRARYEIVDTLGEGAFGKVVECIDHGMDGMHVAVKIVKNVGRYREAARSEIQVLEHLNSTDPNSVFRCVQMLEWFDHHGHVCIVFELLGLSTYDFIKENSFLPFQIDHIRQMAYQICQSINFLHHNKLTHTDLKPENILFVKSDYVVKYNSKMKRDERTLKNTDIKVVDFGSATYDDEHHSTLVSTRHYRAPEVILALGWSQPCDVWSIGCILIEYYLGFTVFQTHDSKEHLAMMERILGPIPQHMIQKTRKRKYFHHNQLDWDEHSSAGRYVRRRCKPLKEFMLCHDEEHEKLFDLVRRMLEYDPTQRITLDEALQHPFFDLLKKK

| Binder | Kd [1] | Kd [2] | Kd [3] | Kd [4] |
| --- | --- | --- | --- | --- |
| PGC1α (titrated and flowed over the Clk chips) (natural protein, Limits are not printed. They are recalled from the supplier's listing for catalogue H00010891-Q01 (partial human PPARGC1A, NP_037393 aa 689-798, N-terminal GST) and should be verified. GST is left …) TRTELRDRFEVFGEIEECTVNLRDDGDSYGFITYRYTCDAFAALENGYTLRRSNETDFELYFCGRKQFFKSNYADLDSNSDDFDPASTKSKYDSLDFDSLLKEAQRSLRR | 240 nM | 509 nM | 980 nM |  |
| Clk1 (flowed over immobilised PGC1α 6X his) (enzyme, Clk1 kinase, recombinant; May be the same bought protein as m1 (AbCam #114 706)) not shown |  |  |  | ~38 nM |

Source: paper PMC9344812, “Induction of beige‐like adipocyte markers and functions in 3T3‐L1 cells by Clk1 and PKCβII inhibitory molecules” (Journal of Cellular and Molecular Medicine, 2022)
